Data on 28 sequences can be found in the supplement of paper PMC9170038.

This series has as its system MS2 coat protein. The experiment in a line: apparent KD of MS2 coat protein; designed switch direction (-1 OFF switch, 1 ON switch): 1; higher = weaker reporter binding. The procedure, abridged:
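RNA switches sharing common flanks were transcribed by stalled E. coli RNA polymerase on Illumina chips. A doubling series of SNAP-549-labelled MS2 coat protein, from 0.7 or 1.5 nM to 3 µM, was applied in Tris-HCl pH 7.5 buffer with KCl, MgCl2, BSA, DTT, tRNA and Tween-20. Each step lasted 0.8–1.5 h at the bottom of the series and 10–20 min at the top. Normalised cluster fluorescence was curve-fitted, giving apparent KD as the per-design median over clusters.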

Setting [1] is: Eterna round: R95, input ligand: FMN 200 uM.
[2] abbreviates: Eterna round: R95, input ligand: microRNA oligo, concentration not stated.
Setting [3] is: Eterna round: R95, input ligand: none.
[4] abbreviates: input ligand: microRNA oligo, concentration not stated.

As to “AUAAAACAUGAGGAUCACCCAUGUCAACAAAGUCGAGGAUAUGGGCAAAUAAAAUAAGAAUCAGAAGGCGAAUAAU [salish99_ss1_r3_030] (puzzle: Same State 1)”, the “apparent KD of MS2 coat protein” value stood at 265 nM under setting [1], 330 nM under setting [2] and 404 nM under setting [3].
On to “GGAGCCAAGGCAGGAUAUUCAUAUUAAUAACACAUGAGGAUCACCCAUGUGGCCAGAAGGCCUUGGGAGAAGGGCCAUGGCUCG [Xeonanis - 13 mod9] (Eterna round: R96, puzzle: Same State NG 2)”, for which the “apparent KD of MS2 coat protein” value turned out to be 28 nM (input ligand: FMN 200 uM), 57.7 nM under setting [4] and 95.3 nM (input ligand: none).
In the same order, the values of “ACAUGAGACCGAGGAUAUAUUGUACCUACAUGUGACAUGAGGAUCACCCAUGUGGUAAGUAUGACAUAGAAGGCGGAGAUAUGU [Equivalance 92 - Jieux - Same State NG 2] (Eterna round: R96, puzzle: Same State NG 2)” are 19.6 nM, 25.9 nM and 30.1 nM.
The corresponding values for “GACUCUAGAGGAGGAUAUGCAGAGGAUCACCCUGUAGAAGGCCUCAUAAGGAGGAUAUGCAGAGGAUCACCCUGUAGAAGGCCU [pwkr ssNG DX.20] (Eterna round: R96, puzzle: Same State NG 1)” are 170 nM, 85.5 nM and 272 nM.
With “ACAUGAGGAUCACCCAUGUCGGAUAAGGAAACGACCACGUGGGAGGAUAUUGUAACGCGUCUGUACGAGAAGGCCCAUUCCAGU [Eternabot solution 42] (Eterna round: R96, puzzle: Same State NG 3)”, the “apparent KD of MS2 coat protein” value came out at 29.2 nM (input ligand: FMN 200 uM), 66.8 nM under setting [4] and 80.8 nM (input ligand: none).
For the sequence “AGUCCAGCCUGAGCUGGACAAAAGCAUGUACAUGAGGAUCACCCAUGUUCAUGUACAAGCUUUUUGCUCGUCUUGUA [salish99_208a_r3_102x] (puzzle: Sensor for hsa-mir-208a)”, the “apparent KD of MS2 coat protein” value under setting [1] came to 367 nM, the “apparent KD of MS2 coat protein” value under setting [2] was found to be 17.2 nM and the “apparent KD of MS2 coat protein” value under setting [3] was 483 nM.
As to “GCUCGUGGUAUUGUCUACAUGAGGAUCACCCAUGUGGGUGCGGAGGAUAUCUACGUGUCUCAUGUAGAGAAGGUCGUCACGAGC [SameState NG3 #100] (Eterna round: R96, puzzle: Same State NG 3)”, the “apparent KD of MS2 coat protein” value is, setting by setting: (input ligand: FMN 200 uM) 119 nM; under setting [4], 119 nM; (input ligand: none) 102 nM.
On to “GCCGCGUUUCGCGCCUACAUGAGGAUCACCCAUGUUUGUCGGCAGGAUAUCGUCCGCUCUGCGGGCGAGAAGGGCUAUUGUGGU [salish99_SSNG3_R04_027] (Eterna round: R96, puzzle: Same State NG 3)”, for which the “apparent KD of MS2 coat protein” value (input ligand: FMN 200 uM) was 28.8 nM, the “apparent KD of MS2 coat protein” value under setting [4] worked out at 17 nM and the “apparent KD of MS2 coat protein” value (input ligand: none) turned out to be 24.5 nM.
Regarding “AUAAGUUCGAUGCUCGUCUCUCCGUACAAACAUGAGGAUCACCCAUGUGGUCGGGAAGUAGCCCGGCCAGUAUGACC [Arbesoce] (puzzle: Sensor for hsa-mir-208a)”, the “apparent KD of MS2 coat protein” value under setting [1] stood at 31.2 nM, the “apparent KD of MS2 coat protein” value under setting [2] was determined as 22 nM and the “apparent KD of MS2 coat protein” value under setting [3] came out at 29 nM.
As to “GUGGUCAGACAUGAGGAUCACCCAUGUGGAAUAAAUAACGGACAGGAUAUAUAAUAUAGGAUAUAGUAGAAGGGUUGAUUGGUG (Eterna round: R96, puzzle: Same State NG 3)”, the “apparent KD of MS2 coat protein” value (input ligand: FMN 200 uM) came to 85.8 nM, the “apparent KD of MS2 coat protein” value under setting [4] was determined as 57.7 nM and the “apparent KD of MS2 coat protein” value (input ligand: none) was 60.2 nM.
Turning to “GAGCCAGUCCGAGGAUAUUCAUAUUAAAACAUGAGGAUCACCCAUGUAGGCUCAGAAGAGCCUUGGGAGAAGGCGGACUGGCUC [Xeonanisa] (Eterna round: R96, puzzle: Same State NG 2)”, the “apparent KD of MS2 coat protein” value runs as follows: (input ligand: FMN 200 uM) 23.3 nM; under setting [4], 214 nM; (input ligand: none) 366 nM.
As for “UGCUGUGUGGUAGGAUAUGUAGGAUAUGUACAUGAGGAUCACCCAUGUCAGUUAAUGACAGAAGGAUAGAAGGACCAGAGGGCU [pwkr ssNG2 2FMN 1F5s.3] (Eterna round: R96, puzzle: Same State NG 2)”, the “apparent KD of MS2 coat protein” value is 254 nM (input ligand: FMN 200 uM), 205 nM under setting [4] and 249 nM (input ligand: none).
In the same order, the values of “GGUAAGAAUUAAGGAUAUUGAAUACAUAUGUUUAACAUGAGGAUCACCCAUGUGGGUUGCGGUGUCGAGAAGGUAAAAUAAUAG [Mat - same State NG 2 - JL mod - D101] (Eterna round: R96, puzzle: Same State NG 2)” are 269 nM, 166 nM and 311 nM.
As for “UGGAUCUAGGCUUGCCUGGGUCCAUGUUGACAUGAGGAUCACCCAUGUGUUUUUUUUUUGCUUUUUGUUUGUCAACA [JL A Humble Attempt mod 3] (puzzle: Sensor for hsa-mir-208a)”, the “apparent KD of MS2 coat protein” value runs as follows: under setting [1], 19.1 nM; under setting [2], 12.3 nM; under setting [3], 21.7 nM.
In the same order, the values of “AGUCCAGCGAAAGCUGGACAAAAGCAUGUACAUGAGGAUCACCCAUGUUCAUGUACAGGCUUUUUGCUCGUCUUAAA [JL mod - D95 - 8] (puzzle: Sensor for hsa-mir-208a)” are 243 nM, 12.6 nM and 175 nM.
In the same order, the values of “AGUCCAGCGAAAGCUGGACAAAAGCAUGUACAUGAGGAUCACCCAUGUUUAUGUACAAGCUUUUUGCUCGUCUUAAA [JL mod - D95 - 11] (puzzle: Sensor for hsa-mir-208a)” are 274 nM, 14.2 nM and 300 nM.
For the sequence “AAAAUAAAAUAAAAGGAUAUAAAAUAAAAUACAUGAGGAUCACCCAUGUAUAAAAUAAAAAAAUAAAAGAAGGAAUAAAAAUAAA [SS2 504: MS2 4] (Eterna round: R96, puzzle: Same State 2)”, the “apparent KD of MS2 coat protein” value by setting is: (input ligand: FMN 200 uM) 28.3 nM; under setting [4], 22.9 nM; (input ligand: none) 26.7 nM.
As for “GCAUCACAUGAGGAUCACCCAUGUCUUCGGAGUGGAGGAUAUGGUCACUGUAAACAGUGGCCAGAAGGCCGGAUGC [SS1 - Son of Teenbexe v2] (puzzle: Same State 1)”, the “apparent KD of MS2 coat protein” value under setting [2] is 63.3 nM.
In the case of “AGUCCAGCCUGAGCUGGACAAAAGUAUGUACAUGAGGAUCACCCAUGUCAUGUACAAGCUUUUUGCUCGUCUUAAAA [Zipper 46 - 14] (puzzle: Sensor for hsa-mir-208a)”, the “apparent KD of MS2 coat protein” value under setting [1] came out at 287 nM, the “apparent KD of MS2 coat protein” value under setting [2] turned out to be 23.6 nM and the “apparent KD of MS2 coat protein” value under setting [3] came out at 377 nM.
As for “UUUAGUUGCGGGCAGGAUAUGUGUUAAAAUACAUGAGGAUCACCCAUGUGCGGGUAUAACACCCGACAGAAGGGCCAAUCGCGAC [Laonerce - 2] (puzzle: Same State 2)”, the “apparent KD of MS2 coat protein” value reads like this: under setting [1], 21.8 nM; under setting [2], 56.4 nM; under setting [3], 67.9 nM.
Take “UGGAGAAGUCAAGGAUAUGCUACCGUUUCGGUAGCAGAAGGUGAUCACAUGAGGAUCACCCAUGUAUGCAUGCGUGAGCGUGCU [JL SSNG1 3.55] (Eterna round: R96, puzzle: Same State NG 1)”: the “apparent KD of MS2 coat protein” value is, setting by setting: (input ligand: FMN 200 uM) 337 nM; under setting [4], 15.2 nM; (input ligand: none) 125 nM.
As to “GAGUGGUGGAGAGGAUAUACAUUGAUAAUCACUGUAGAAGGUUCUAACAUGAGGAUCACCCAUGUAGGACUAUUCCUGAGAGUU [Parity 53 - Jieux - Same State NG 1] (Eterna round: R96, puzzle: Same State NG 1)”, the “apparent KD of MS2 coat protein” value was found to be 11.6 nM (input ligand: FMN 200 uM), 9.89 nM under setting [4] and 12 nM (input ligand: none).
Turning to “UACAAUCUAUCUGAGGAUAUCAUGAAAAAAACAUGAGGAUCACCCAUGUGCAGGAAAACUGCAUAUGAGAAGGCAGAUAGAUUGA [salish99_SS2_r3_005] (puzzle: Same State 2)”, the “apparent KD of MS2 coat protein” value is 27.4 nM under setting [1], 585 nM under setting [2] and 721 nM under setting [3].
In the case of “UUCUCACAUGAGGAUCACCCAUGUGAGCCUCUGUGAGGAUAUCCGACAUAAUUAAUUGAAGGAGAAGGUACACGAG [Leer] (puzzle: Same State 1)”, the “apparent KD of MS2 coat protein” value turned out to be 130 nM under setting [1], 4.78 nM under setting [2] and 24.9 nM under setting [3].
“GGUCCAUCAUGAGGAUAUGGCACCUUAUUGGUGCCAGAAGGCAUGUAAAUUAUAAUAAACAUGAGGAUCACCCAUGUAUGGACC [Eli NG1ss - 96] (Eterna round: R96, puzzle: Same State NG 1)”: the “apparent KD of MS2 coat protein” value (input ligand: FMN 200 uM) came to 439 nM, the “apparent KD of MS2 coat protein” value under setting [4] was determined as 55.5 nM and the “apparent KD of MS2 coat protein” value (input ligand: none) was found to be 137 nM.
For “GUGCUCAUGUAAGGAUAUGCAGCCGUUUCGGCUGCAGAAGGUACUAUAAUACAUGAGGAUCACCCAUGUCUCUAUAAUUUGGUG [salish99_SSNG1_r04_903] (Eterna round: R96, puzzle: Same State NG 1)”, the “apparent KD of MS2 coat protein” value under setting [4] was found to be 76.5 nM.
With “UGAGCCGGCACUGAGGAUAUUCAUAUUAAAACAUGAGGAUCACCCAUGUAGGCCAGAAGGCCUUGGGAGAAGGCAGGUCGGCUCA [Mat - Same State 2 - Mod of UCT - D62] (puzzle: Same State 2)”, the “apparent KD of MS2 coat protein” value under setting [2] amounted to 200 nM.
As to “AAGAGAGGAAGCGAGGAUAUCGUGGGAGGGACAUGAGGAUCACCCAUGUAGGAUGUUGAGAGGAACGAGAAGGCGCAGGAAAGAA [JR_SS2_Sub074] (puzzle: Same State 2)”, the “apparent KD of MS2 coat protein” value was found to be 87.4 nM under setting [1], 73.3 nM under setting [2] and 96.1 nM under setting [3].
